Data reported in the supplement of paper PMC9170038.

Test system: MS2 coat protein
Experiment: apparent KD of MS2 coat protein; designed switch direction (-1 OFF switch, 1 ON switch): -1; higher = weaker reporter binding
Outline: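 Each step of the titration lasted 0.8–1.5 h at the lowest concentration and 10–20 min at the highest. The protein, SNAP-549-labelled MS2 coat protein, went from 0.7 or 1.5 nM doubling to 3 µM over RNA switches transcribed on Illumina chips by stalled E. coli RNA polymerase. Normalised cluster fluorescence was curve-fitted, and the per-design median over clusters is given as apparent KD.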

[1] = Eterna round: R95, input ligand: microRNA oligo, concentration not stated
[2] = Eterna round: R95, input ligand: FMN 200 uM
[3] = Eterna round: R95, input ligand: none
[4] = input ligand: microRNA oligo, concentration not stated

Row | Sequence | apparent KD of MS2 coat protein (input ligand: FMN 200 uM) [nM] | apparent KD of MS2 coat protein (input ligand: none) [nM] | apparent KD of MS2 coat protein [1] [nM] | apparent KD of MS2 coat protein [2] [nM] | apparent KD of MS2 coat protein [3] [nM] | apparent KD of MS2 coat protein [4] [nM]
1 | AAGUUACAUGAGGAUCACCCAUGUGAGGAUAUGAGUCAGUCACGGUGACGUGGCUGACUCAGAAGGCACAAUGG [JL-ex1-4.41 salish99 mod] (Eterna round: R97, puzzle: Exclusion 1) | 43 | 290 | – | – | – | –
2 | AAUAAACAUGAGGAUCACCCAUGUCAGGAUAUCCAUUUGUUUUUGUUGGUUUUUUUUUGGAGAAGGGACGCUUA [Lollin - Alpha 1] (puzzle: Exclusion 1) | – | – | 58.1 | – | – | –
3 | AAUAAAGGAGGAUAUACUAAAAUAUGAAUAAAAUAAAUAAAACAUGAGGAUCACCCAUGUAGAAGGCCUAAUAA [JMF's Not so obvious solution 3] (puzzle: Exclusion 2) | – | – | 23.9 | 22.8 | 25.2 | –
4 | AAUAACAAGCUGAUCCUAAACAUGAGGAUCACCCAUGUGUUCGUCUUGUAAAGUACUAUCACGAAAGUGAUAGUACA (Eterna round: R97, puzzle: Sensor, turn-off variant 1) | 75.2 | 80 | – | – | – | –
5 | AAUAACAAGCUGAUCCUCCACAUGAGGAUCACCCAUGUGUUCGUCUUGUAAAGUACUAUCACGAAAGUGAUAGUACA (Eterna round: R97, puzzle: Sensor, turn-off variant 1) | 984 | 1630 | – | – | – | –
6 | AAUAACAGAGGAUAUACUAUUUUAUGUAUUUAUUAUUUUGAACAUGAGGAUCACCCAUGUAGAAGGCUGAAUAA [JMF 20] (puzzle: Exclusion 2) | – | – | 19.9 | – | – | –
7 | AAUAACAGAGGAUAUACUGUUUUAUGUAUUUAUUAUUUUAAACAUGAGGAUCACCCAUGUAGAAGGCUGAUUGA [JMF 71] (puzzle: Exclusion 2) | – | – | 26.8 | – | – | –
8 | AAUAACAGAGGAUAUACUGUUUUAUGUGUUUAUUGUUUUAAACAUGAGGAUCACCCAUGUAGAAGGCUGAGUAA [JMF 32] (puzzle: Exclusion 2) | – | – | 33.5 | – | – | –
9 | AAUAAGUGAGGAUAUACGUCUGGACCCGGGAGGGAAAUAAAACAUGAGGAUCACCCAUGUAGAAGGCACAAUAA [Excls2-III] (puzzle: Exclusion 2) | – | – | 13.5 | 17.5 | 16.9 | –
10 | AAUAAGUGAGGAUAUCCAAUAAUAAAUAAAAUAAUAAAUAAGGAGAAGGCACAUGAGGAUCACCCAUGUAAUAA [JMF's solution 2] (puzzle: Exclusion 4) | – | – | 14.8 | 19 | 15.7 | –
11 | AAUAAUAAAGUCAGGAUAUCUAGAGCCUCGGCUCUAGAGAAGGGACAUGAGGAUCACCCAUGUCACUCAAUAAU [BmEx4/3-D2] (Eterna round: R97, puzzle: Brourd's mod of Exclusion 4) | 20.2 | 17.7 | – | – | – | –
12 | AAUAAUAAGGAGGAUAUCGUAUCCGAAAGGAUACGAGAAGGCCUAACAUGAGGAUCACCCAUGUUCCUCAAUAA [Mat - Exclusion 6 - Eli Mod - D54] (puzzle: Exclusion 6) | – | – | 264 | 773 | 267 | –
13 | AAUACAAGCUAUUGAUCCCACAUGAGGAUCACCCAUGUAGAUGGCGGUGACACCUCCAUUACGAUAGCUCGUCUUAU [Sensor-V1 #57] (Eterna round: R97, puzzle: Sensor, turn-off variant 1) | 321 | 347 | – | – | – | –
14 | AAUACAAGCUAUUGAUCCCACAUGAGGAUCACCCAUGUGCCUGGCCGUGAGACAAGGUUUACAAUAGCUCGUCUUAU [Sensor-V1 #46] (Eterna round: R97, puzzle: Sensor, turn-off variant 1) | 46.1 | 44.7 | – | – | – | –
15 | AAUACAAGCUAUUGAUCCCACAUGAGGAUCACCCAUGUUCCUGGCCGUGAGGCUAGGUAAACAAUAGCUCGUCUUAU [Sensor-V1 #42] (Eterna round: R97, puzzle: Sensor, turn-off variant 1) | 91.2 | 99.8 | – | – | – | –
16 | AAUAGCAAGCAGAUCCUAAACAUGAGGAUCACCCAUGUGCUCGUCUUGUAAAGUACUAUCACGAAAGUGAUAGUACA [Sensor 3, v1 - 61] (puzzle: Sensor v3, turn-off variant 1) | – | – | 326 | 118 | 88.3 | –

Row | Sequence | apparent KD of MS2 coat protein (input ligand: FMN 200 uM) [nM] | apparent KD of MS2 coat protein (input ligand: none) [nM] | apparent KD of MS2 coat protein [1] [nM] | apparent KD of MS2 coat protein [2] [nM] | apparent KD of MS2 coat protein [3] [nM] | apparent KD of MS2 coat protein [4] [nM]
17 | AAUAGUCAAGUUAGGAUAUUGCACCAGUGAUGGACCAAGAAGGAACAUGAGGAUCACCCAUGUGAACUCACGAC [Eternabot (Original) Solution 3] (Eterna round: R97, puzzle: Brourd's mod of Exclusion 4) | 344 | 40.8 | – | – | – | –
18 | AAUAUACAUGUAGGAUAUCUGCACGAUUAGUGCAGAGAAGGACAUGAGGAUCACCCAUGUAAUUAAGAUCAAUUAUUAAAUAUU [ENG1/3-B1] (Eterna round: R96, puzzle: Exclusion NG 1) | 327 | 46.6 | – | – | – | 46.9
19 | AAUAUGUGAGGAUAUGCUUUAAGAAGAAUGAGUUUGAAAUAACAUGAGGAUCACCCAUGUAGAAGGCGCUAAAA [Lollin - Beta 1] (puzzle: Exclusion 2) | – | – | 19.3 | 19.4 | 25.9 | –
20 | AAUCCACAUGAGGAUCACCCAUGUCAGGAUAUCGCGCGCGCGUUUUCGGUCUUGCGCGCGAGAAGGGACGGCUG (puzzle: Exclusion 1) | – | – | 22.9 | – | – | –
21 | AAUCCACAUGAGGAUCACCCAUGUCAGGAUAUCGUGUCGCGGGUUUCGGUCCGUGAUGCGAGAAGGGACGGCUG (puzzle: Exclusion 1) | – | – | 27.4 | – | – | –
22 | AAUCCACAUGAGGAUCACCCAUGUUAGGAUAUCGCGGAGAUCGACUGCGGAAGUUCUGCGAGAAGGAGCGUGAU [Eternabot (L2) Solution 18] (Eterna round: R97, puzzle: Exclusion 1) | 51.6 | 44 | – | – | – | –
23 | AAUCCUGAAGUUAGGAUAUGAAGUAUCACUGCACUUCAGAAGGGACUUGAGGAUCACCCAAGUAGCCGUGAGGC [jl-bmx4.4.61 ViennaUCT mod] (Eterna round: R97, puzzle: Brourd's mod of Exclusion 4) | 156 | 35.6 | – | – | – | –
24 | AAUGAGCUAGGAUAUACAUGAGGAUCACCCAUGUAAAAUAGGUCAUGGAUGAACCACUGUAGAAGGAGCAGGGC [Ateseszave] (puzzle: Exclusion 3) | – | – | 146 | 95.6 | 105 | –
25 | AAUGUCCAACGAGGAUAUGGGAAAGGAAGUGUACCAGAAGGCGUACGGACAUGAGGAUCACCCAUGUCGCGCGGCGCGAUGUGG [PowerStrip EXNG 1.14] (Eterna round: R96, puzzle: Exclusion NG 1) | 80.9 | 52.7 | – | – | – | 46.4
26 | AAUGUUGUUGUGAGGAUAUCGUAGUUAUUUUGAAACGAGAAGGCACAUGAGGAUCACCCAUGUUUGUUGAUGGU [JR_BMOE4_Sub061] (puzzle: Brourd's mod of Exclusion 4) | – | – | 20.8 | – | – | –
27 | AAUGUUUGAUACCUUUAAUACAUGAGGAUCACCCAUGUUAUCGAGGAUAUGUAGAAGAGAUGAGAACAGAAGGCGAAGUAAGAG [JR_ExcNG3_Sub097] (Eterna round: R96, puzzle: Exclusion NG 3) | 29.5 | 15.1 | – | – | – | 10.5
28 | AAUGUUUGAUUCCACUUAUACAUGAGGAUCACCCAUGUUAUCGAGGAUAUGCAUUAGAGUGUUUAGCAGAAGGCGAUGUAAUUG [JR_ExcNG3_Sub034] (Eterna round: R96, puzzle: Exclusion NG 3) | 90.2 | 13.8 | – | – | – | 13.1
29 | AAUUAAGCAAGCAGAUCCCACAUGAGGAUCACCCAUGUGCUCGUCUUAUAAGGUACUGUGACGAUAGUCACGGUACC [Mat - Sensor, turn-off var - Eli Mod - D71] (Eterna round: R97, puzzle: Sensor, turn-off variant 1) | 135 | 140 | – | – | – | –
30 | AAUUACAAGCAAAGAUCCUACAUGAGGAUCACCCAUGUGCUCGUCUUAUAAAGUACUAUCACGAAAGUGAUAGUACA [Mat - Sensor v3 - turn-off var 1 - Eli Mod - D76] (puzzle: Sensor v3, turn-off variant 1) | – | – | 13.5 | 222 | 232 | –
31 | AAUUAGUGAGGAUAUUCGAGCAGUGGCAGUAGCCAGUGCAUGAAGAAGGCACAUGAGGAUCACCCAUGUUAUAA [EX4 #60] (Eterna round: R97, puzzle: Exclusion 4) | 53.4 | 28.4 | – | – | – | –
32 | AAUUAGUGUGUGAGGAUAUUGGUGGAAUGACUUAUUAAGAAGGCACAUGAGGAUCACCCAUGUGGGAAGUCACG [JR_BMEx4_Sub014] (Eterna round: R97, puzzle: Brourd's mod of Exclusion 4) | 10.1 | 12 | – | – | – | –
